Reference: the supplement of paper PMC9233669
This sample holds only a part of the variants without activity.

Tests used:
biotinyl-Ile-oxazolone = assay: self-aminoacylation, catalytic enhancement (BIO) (fold over background); higher = more active; k-Seq, kA / k0A0; sequences stand for … in GGGAAUGGAUCCACAUCUACGAAUUC…UUCACUGCAGACUUGACGAAGCUG
How it was run: (§1)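 The uncatalyzed rate is the low-activity peak of a bimodal Gaussian fit, and catalytic enhancement is median kA divided by it. The kA values came from pseudo-first-order fits, with 1000 bootstraps, of per-sequence fraction reacted measured by streptavidin capture, triplicate qPCR and Illumina sequencing. Mutagenized RNA pools with a 21-nt variable region (0.43 μM) were reacted with each biotinyl-aminoacyl-oxazolone at 2–1250 μM in 50 μL HEPES/NaCl/KCl/MgCl2/CaCl2 buffer with 5% acetonitrile, pH 6.9–7.0, for 90 minutes at room temperature.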

biotinyl-Trp-oxazolone = assay: self-aminoacylation, catalytic enhancement (BWO) (fold over background); higher = more active; k-Seq, kA / k0A0; sequences stand for … in GGGAAUGGAUCCACAUCUACGAAUUC…UUCACUGCAGACUUGACGAAGCUG
How it was run: as §1

biotinyl-Phe-oxazolone = assay: self-aminoacylation, catalytic enhancement (BFO) (fold over background); higher = more active; k-Seq, kA / k0A0; sequences stand for … in GGGAAUGGAUCCACAUCUACGAAUUC…UUCACUGCAGACUUGACGAAGCUG
How it was run: as §1

biotinyl-Val-oxazolone = assay: self-aminoacylation, catalytic enhancement (BVO) (fold over background); higher = more active; k-Seq, kA / k0A0; sequences stand for … in GGGAAUGGAUCCACAUCUACGAAUUC…UUCACUGCAGACUUGACGAAGCUG
How it was run: as §1

biotinyl-Leu-oxazolone = assay: self-aminoacylation, catalytic enhancement (BLO) (fold over background); higher = more active; k-Seq, kA / k0A0; sequences stand for … in GGGAAUGGAUCCACAUCUACGAAUUC…UUCACUGCAGACUUGACGAAGCUG
How it was run: as §1

biotinyl-Met-oxazolone = assay: self-aminoacylation, catalytic enhancement (BMO) (fold over background); higher = more active; k-Seq, kA / k0A0; sequences stand for … in GGGAAUGGAUCCACAUCUACGAAUUC…UUCACUGCAGACUUGACGAAGCUG
How it was run: as §1

Row | Sequence | self-aminoacylation (biotinyl-Ile-oxazolone) | self-aminoacylation (biotinyl-Trp-oxazolone) | self-aminoacylation (biotinyl-Phe-oxazolone) | self-aminoacylation (biotinyl-Val-oxazolone) | self-aminoacylation (biotinyl-Leu-oxazolone) | self-aminoacylation (biotinyl-Met-oxazolone)
1 | AUUUACCUAGGGCAUCGGGUG [Fam2.2 aminoacylation ribozyme variant] | 2.92 | 3.7 | 16.7 | 3.12 | 3.47 | 3.65
2 | CCACACCUCAAGCCAUCGGUC [Fam1B.1 aminoacylation ribozyme variant] | 1.27 | 1.55 | 2.01 | 1.42 | 1.41 | 1.38
3 | CCUCAUUUCAAGCAAUCGGUC [Fam1B.1 aminoacylation ribozyme variant] | 1.11 | 2.75 | 5.96 | 1.05 | 1.08 | 1.07
4 | AAGUGUGCUAAUAGUCGCAAG [Fam3.1 aminoacylation ribozyme variant] | 1.56 | 6.71 | 21.7 | 1.36 | 1.36 | 1.69
5 | AAGUUUGCUGAUAGGCGCAAG [Fam3.1 aminoacylation ribozyme variant] | 0.732 | 0.544 | 2.19 | 0.765 | 0.707 | 1.26
6 | CCACACUUCGAGCAAUCAGUC [Fam1B.1 aminoacylation ribozyme variant] | 0.666 | 0.695 | 0.892 | 0.625 | 0.52 | 0.488
7 | ACUACCGUGGUCAUCGAGUGA [Fam2.1 aminoacylation ribozyme variant] | 3.41 | 6.91 | 18 | 3.29 | 5.21 | 5.28
8 | GUACUUCAAACAACCGGUCUG [Fam1A.1 aminoacylation ribozyme variant] | 1.67 | 2.02 | 4.78 | 1.54 | 1.23 | 1.21
9 | CAGUUUGCUGAUAGUCGCAAG [Fam3.1 aminoacylation ribozyme variant] | 1.34 | 1.99 | 1.88 | 1.27 | 1.17 | 1.11
10 | AUUCACCUUGGCCAUCGGGUG [Fam2.2 aminoacylation ribozyme variant] | 2.9 | 4.95 | 31.6 | 3.88 | 4.98 | 4.02
11 | AUUCACCUAAGUCAUCGGGUG [Fam2.2 aminoacylation ribozyme variant] | 5.75 | 8.93 | 74.2 | 5.58 | 12.8 | 9.66
12 | AUUACCCUGGUUAUCUAGUGA [Fam2.1 aminoacylation ribozyme variant] | 5.78 | 17.6 | 93.5 | 6.4 | 15.3 | 14.4
13 | CCACACUUCAAGCAAUCCCUC [Fam1B.1 aminoacylation ribozyme variant] | 1.04 | 1.35 | 0.896 | 1.15 | 0.729 | 0.846
14 | AAGUUUGCUAAUCGUCGCAAU [Fam3.1 aminoacylation ribozyme variant] | 1.39 | 1.03 | 0.833 | 1.3 | 1.04 | 1.3
15 | CAACACUUCAAGCAAUCGCUC [Fam1B.1 aminoacylation ribozyme variant] | 1.85 | 1.54 | 0.965 | 1.57 | 2.04 | 1.19
16 | AUUGCUCUGGUCAUCGAGUGA [Fam2.1 aminoacylation ribozyme variant] | 3.33 | 6.59 | 6.13 | 3.3 | 5.71 | 6.02
17 | CUACUUCAAACAAUCCGUGUG [Fam1A.1 aminoacylation ribozyme variant] | 1.99 | 2.52 | 7.45 | 1.88 | 3.84 | 2.86
18 | AUUCACCUAGGUCAUGGGGGG [Fam2.2 aminoacylation ribozyme variant] | 2.55 | 2.23 | 1.11 | 2 | 3.18 | 2.72
19 | AUCACCCUGCUCAUCGAGUGA [Fam2.1 aminoacylation ribozyme variant] | 1.57 | 3.44 | 19.1 | 1.9 | 2.67 | 2.48
20 | UAGUUUGCUAAUAGUCGCAAA [Fam3.1 aminoacylation ribozyme variant] | 1.95 | 2.06 | 1.58 | 1.38 | 1.53 | 1.75
21 | CCACACUUCAAGCCAUCGGUC [Fam1B.1 aminoacylation ribozyme variant] | 0.995 | 0.932 | 0.854 | 1.24 | 0.986 | 0.95
22 | CUUCACCUAGGUCAGCGGGUG [Fam2.2 aminoacylation ribozyme variant] | 3.62 | 4.01 | 9.81 | 3.88 | 4.96 | 3.27
23 | GUUCACCUAGGUCAUCGCGUG [Fam2.2 aminoacylation ribozyme variant] | 6.72 | 10.6 | 96.1 | 6.96 | 15 | 10.5
24 | AUUCAAUUAGGUCAUCGGGUG [Fam2.2 aminoacylation ribozyme variant] | 3.56 | 5.33 | 42.1 | 3.44 | 7.25 | 6
25 | AUUACCCUGGUCUUCGAUUGA [Fam2.1 aminoacylation ribozyme variant] | 0.769 | 0.41 | 0.383 | 0.779 | 0.67 | 0.723
26 | AUUACCGUAGUCAUCGAGUGA [Fam2.1 aminoacylation ribozyme variant] | 2.94 | 7.23 | 26 | 3.22 | 5.83 | 4.79
